Drawing on publication PMC7736808, this text covers Kd for one sequence.

In general, Kd refers to the free concentration of one partner at which half of the binding sites on the other are occupied at equilibrium, for simple one-to-one binding. Read a high Kd as a looser complex.

Common to all, as to assay: MST
Common to all, as to settings: 5-bromo-dC at every C, MST at 22 C, 5 nM labeled DNA, 0.5 mg/ml BSA, 0.05% Tween 20, 5 mM HEPES pH 7.5, 20 mM NaCl (Table 2), 20 mM HEPES pH 8.0, 100 mM NaCl (Table 4)

The target of series [1] is T1, hZαADAR1 (human) (UniProt P55265).
T1 sequence: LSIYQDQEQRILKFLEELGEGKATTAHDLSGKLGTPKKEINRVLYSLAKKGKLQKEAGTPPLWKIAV

The target in another series is vvZαE3L (UniProt P21605).
In series [2] the target is T2, GH5*:α3NADAR1-PW K41G;S42G;R43G;K53A;R95A;del65;D66K;L67K;Q68E;K70N;L71R;S72V;I73L;R74Y;R75S;S91P;F94W (/ human ADAR1 α3N and β-wing residues) (UniProt P02259).
T2 sequence: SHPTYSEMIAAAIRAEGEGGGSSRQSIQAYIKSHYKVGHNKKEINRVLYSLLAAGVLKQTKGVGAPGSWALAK

For series [3], the target named is T1, hZαADAR1 (human). The source holds these as a separate data set.

As to “TCGCGCGCGCGCGCGCGCGCGCGCGCGCGCG (double strand) [Z-DNA, [d(5'-Cy5-T(Br5CG)15)]2]”, the Kd in the series with hZαADAR1 (human) [1] is 18 nM; with vvZαE3L, 2000 nM; in series [2], 1800 nM; with hZαADAR1 (human) [3], 600 nM.
